From IntAct's records for PubMed 23000721

B1: Chitin biosynthesis protein CHS6 (Saccharomyces cerevisiae), P40955 (parent)
chain: MNLFWPSETKKQNEIPGGDYTPGNSPSVQKGYQFLNRDIFKSCPRIMERQFGECLHNRTHLIKDLISSGNVGLGPIEIVHMSYLNKHEKEEFGEYFYVTGIEVSGPAMPVEFLEVLKSSKRISKNISNNIILTYCCFNFFSNLDIRIRYDADDTFQTTAIDCNKETTDLTMTEKMWEETFASSVIRAIITNTNPELKPPGLVECPFYVGKDTISSCKKIIELLCRFLPRSLNCGWDSTKSMQATIVNNYLMYSLKSFIAITPSLVDFTIDYLKGLTKKDPIHDIYYKTAMITILDHIETKELDMITILNETLDPLLSLLNDLPPRDADSARLMNCMSDLLNIQTNFLLNRGDYELALGVSNTSTELALDSFESWYNLARCHIKKEEYEKALFAINSMPRLRKNDGHLETMYSRFLTSNYYKKPLNGTREHYDLTAMEFTNLSGTLRNWKEDELKRQIFGRIAMINEKKIGYTKEIWDDIAIKLGPICGPQSVNLINYVSPQEVKNIKNINLIARNTIGKQLGWFSGKIYGLLMEIVNKIGWNGLLNIRTEAFMMETEFYQASNNIIDENGHIPMESRKKRFCEGWLDDLFLDLYQDLKLSKISLSNKDEKHSGLEWELLGLIMLRTWHWEDAVACLRTSIVARFDPVSCQQLLKIYLQPPKNIQEVTLLDTDTIISLLIKKISYDCRYYNYCQIFNLQLLEKLCNELGTHILRNKILLQPSIGDEIMVMIDAMLAWIADLDHTVQP
partner: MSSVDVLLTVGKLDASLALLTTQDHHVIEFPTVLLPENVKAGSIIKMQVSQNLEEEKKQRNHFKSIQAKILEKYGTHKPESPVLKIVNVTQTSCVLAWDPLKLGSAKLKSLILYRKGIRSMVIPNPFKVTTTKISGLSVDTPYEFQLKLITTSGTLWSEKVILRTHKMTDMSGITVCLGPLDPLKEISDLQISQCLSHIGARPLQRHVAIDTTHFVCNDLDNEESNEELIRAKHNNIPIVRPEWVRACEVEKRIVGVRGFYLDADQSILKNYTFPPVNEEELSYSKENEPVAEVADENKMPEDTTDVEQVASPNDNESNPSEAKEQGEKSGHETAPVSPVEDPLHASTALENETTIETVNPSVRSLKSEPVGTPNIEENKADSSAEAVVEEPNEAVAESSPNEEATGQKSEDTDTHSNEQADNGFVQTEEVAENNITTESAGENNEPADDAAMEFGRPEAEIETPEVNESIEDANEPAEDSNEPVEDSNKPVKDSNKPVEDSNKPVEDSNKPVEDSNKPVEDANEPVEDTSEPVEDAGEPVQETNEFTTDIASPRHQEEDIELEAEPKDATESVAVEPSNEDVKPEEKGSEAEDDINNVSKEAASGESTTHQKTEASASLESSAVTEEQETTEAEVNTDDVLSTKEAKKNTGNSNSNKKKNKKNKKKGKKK
B2: Chitin biosynthesis protein CHS5 (Saccharomyces cerevisiae), Q12114 (parent)
chain: B1 partner
partner: B1 chain

Variants of: B1
Conditions: with chs5_yeast CHS5, Q12114

Q: With I305R as the variant, how does the “effect of a mutation on the interaction” value read?
A: The value was “disrupting interaction”.

Variants of: B2
Conditions: with chs6_yeast CHS6, P40955

Q: With Q67E as the variant, how does the “effect of a mutation on the interaction” value read?
A: The value was “disrupting interaction”.

Q: With F63E as the variant, how does the “effect of a mutation on the interaction” value read?
A: The value was “disrupting interaction”.
